# According to patent US20220348610A1 (published 2022):
# Numbered stars: 1 amine (or outer) side, 2 acyl side, 3 side chain; on linkers, the order of the positions; unused ones are H or OH. Bridge positions count the residues as written; N and C are the ends. Square brackets hold non-standard residues; d marks the D form. Tyr(OMe) = O-methyl-Tyr (4-methoxyphenylalanine), COc1ccc(C[C@H](N[*:1])C(=O)[*:2])cc1; Trp(5-F) = N[C@@H](Cc1c[nH]c2ccc(F)cc12)C(=O)O; mXylylene = c1cc(C[*:1])cc(C[*:2])c1; AlexaFluor 647 = AlexaFluor 647 dye; αMeP = C[C@@]1(C(=O)O)CCCN1; Mpa = O=C(O)CCS
# How the values were obtained:
# biotinylated PCSK9 [1] = target: T1, biotinylated PCSK9 (UniProt Q8NBP7 31-692, limits assumed, biotinylated (site not stated)); test: Alexa FRET Standard assay
# Experimental: A solution containing 1 nM biotinylated PCSK9+2.5 nM Lance Streptavidin Europium (Strep-Eu) was made in 50 mM HEPES pH 7.4, 0.15 M NaCl, 5 mM CaCl₂), 0.01% BSA, and 0.01% Surfactant P20. A separate solution containing 40 nM of the AlexaFluor tagged cyclic peptide was made in the same buffer system. An Echo was used to transfer 0.750 ul of compound to an assay plate followed by the addition of 15 ul of PCSK9+Stept-Eu and 15 ul of AF peptide. The final assay volume was 30.750 ul containing 0.5 nM PCSK9, 1.25 nM Strep-Eu, and 20 nM AF cyclic peptide. The reaction was incubated at room temperature for at least two hours prior to fluorescence measurements using an Envision Multilabel Reader. IC₅₀ values were determined by fitting data to a sigmoidal dose-response curve using nonlinear regression. Kᵢ was then calculated from the IC₅₀ and the KD of AF cyclic peptide. Counts (B-counts) of the europium-labeled PCSK9 were followed to observe if compounds were […]. A fall off of the B-counts likely indicated a false positive of inhibition. Data from this procedure was reported as “A=‘numerical value’ (nanomolar)”
# biotinylated PCSK9 [2] = target: T1, biotinylated PCSK9; test: Alexa FRET Plus assay
# Experimental: A solution containing 1 nM biotinylated PCSK9+2.5 nM Lance Streptavidin Europium (Strep-Eu) was made in 50 mM HEPES pH 7.4, 0.15 M NaCl, 5 mM CaCl₂), 0.01% BSA, and 0.01% Surfactant P20. A separate solution containing 1920 nM of the AlexaFluor tagged cyclic peptide was made in the same buffer system. An Echo was used to transfer 0.075 ul of compound plus 0.675 ul of DMSO to each well of an assay plate followed by the addition of 15 ul of PCSK9+Stept-Eu and 15 ul of AF peptide. The final assay volume was 30.750 ul containing 0.5 nM PCSK9, 1.25 nM Strep-Eu, and 960 nM AF cyclic peptide. The reaction was incubated at room temperature for at least two hours prior to fluorescence measurements using an Envision Multilabel Reader. IC₅₀ values were determined by fitting data to a sigmoidal dose-response curve using nonlinear regression. Kᵢ was then calculated from the IC₅₀ and the KD of AF cyclic peptide. Counts (B-counts) of the europium-labeled PCSK9 were followed to observe if compounds were adversely affecting PCSK9. A fall off of the B-counts likely indicated a false positive of inhibition. Data from this procedure was reported as “P=‘numerical value’ (nanomolar)”
# T1 sequence (Q8NBP7 31-692 limits assumed): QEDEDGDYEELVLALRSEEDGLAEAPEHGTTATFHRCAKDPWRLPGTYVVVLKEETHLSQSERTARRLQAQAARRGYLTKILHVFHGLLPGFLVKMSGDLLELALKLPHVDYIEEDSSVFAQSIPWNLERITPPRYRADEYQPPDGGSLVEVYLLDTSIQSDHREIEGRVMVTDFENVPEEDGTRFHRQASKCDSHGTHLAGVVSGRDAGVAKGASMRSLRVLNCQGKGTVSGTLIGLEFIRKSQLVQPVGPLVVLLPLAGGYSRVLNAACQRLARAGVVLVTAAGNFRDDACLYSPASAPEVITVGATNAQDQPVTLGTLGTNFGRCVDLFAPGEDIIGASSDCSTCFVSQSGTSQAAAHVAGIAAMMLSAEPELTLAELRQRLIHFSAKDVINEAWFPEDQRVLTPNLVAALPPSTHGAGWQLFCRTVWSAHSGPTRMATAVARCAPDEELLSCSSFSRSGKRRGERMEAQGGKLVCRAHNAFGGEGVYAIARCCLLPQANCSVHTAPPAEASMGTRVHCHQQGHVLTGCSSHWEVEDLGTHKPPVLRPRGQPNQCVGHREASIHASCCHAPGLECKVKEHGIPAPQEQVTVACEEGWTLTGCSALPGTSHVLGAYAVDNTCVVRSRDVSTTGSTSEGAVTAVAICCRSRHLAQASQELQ
Kd (biotinylated PCSK9 [1]) [nM],Kd (biotinylated PCSK9 [2]) [nM],Binder
83,,"[Mpa]K(AlexaFluor 647)G[Trp(5-F)][Trp(5-F)]DHY[αMeP]C-NH2 (linker N-10 via mXylylene; not fully specified, also called AlexaFluor647 (AF) tagged cyclic peptide; AF cyclic peptide) [Reagent A]"
,35,"[Mpa]K(AlexaFluor 647)[dA][Trp(5-F)][Trp(5-F)]DH[Tyr(OMe)][αMeP]C-NH2 (linker N-10 via mXylylene; not fully specified, also called AlexaFluor647 (AF) tagged cyclic peptide; AF cyclic peptide) [Reagent B]"
